Target: T1, Fur (Escherichia coli O157:H7 (EDL933?)) (UniProt P0A9B1)
T1 sequence: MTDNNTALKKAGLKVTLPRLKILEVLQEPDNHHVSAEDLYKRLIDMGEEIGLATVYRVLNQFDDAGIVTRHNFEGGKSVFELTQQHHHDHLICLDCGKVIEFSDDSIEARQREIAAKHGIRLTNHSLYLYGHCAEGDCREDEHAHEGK
Assay: EMSA
Details: BirA EMSA: 1 mM Tris-HCl pH 7.5, 0.1 mM EDTA, 0.2 mM DTT, 5 mM MgCl2, 10 mM KCl, 20 uM biotin, 1 mM ATP (DIG Gel Shift Kit); Fur EMSA: Invitrogen E33075 kit …

Sequence | binding
AACAGAAGACTGGTTGCTGGAGAGTCCTTCTCGGGTATCGATTGTCGAAGATAAACATATTTATTATTTTCATTTATTGAAAGACTTTTTTACATCATTACCAGATGCTTGCTTTATTGATAGTGAGCAGAGAGAGAATGCATTATTAATGATTGGTAAAGTTATCGACTATAAGGAGGAAATTATTTGATATTAATTACTCAATAATTTTTTTGTTTTCCTGAGAAAAATTATCAAGAGGTATATAGATGGATACATCAAATGCAACATCCGTTGTTAATGTGAGTGCGAGTTCTTC (double strand) [LEE Box1 fragment] | no binding
GACATTAAACTTGATCCTGGCGAGGCCAACAATATACAGCTTATTAATGATGCAAACACACCGCATAATAAAATTATAATAGAAAATGAATATATTAGAATAACTTTAGACCCATTAGAGCAAATAAGTATTTTATTGAATTCATTTAAAGATAATTATCTTAGCATTATTCAGGAATGATGATATGTCTCAATTAATGACCATTGGCTCACAGCCAATATTTTTAATTATTGTATTTTTTCTGTTATCATTACTGCCAA (double strand) [LEE Box5 fragment] | no binding
GTTGGCGGCATCATTGTATCCGATGAAGATAATTGCTCTAGTTTATCAAATTGCTTATCGAGCAAAGAGGCGAGAGTATGTTGCATTATTGCTTTTGACATGTTTGCGCGATGATTATTATCTTTATGAAAAATTTGGCAAAGATACCACTTCTTATTAGACAGGAAAATACCCATTTGTTTATATTCGTTACTAACGGCCAGGATATTGCAGAGTCTGATAAATGTATCTGTTGGAACCTGACGAAAATCACCACTAAGCTCAATATATAGAACCCAGTAGTTTCCAAAATCG (double strand) [LEE Box4 fragment] | no binding

Reference: article PMC4382993
